Assay results from the supplement of paper PMC9170038.

Test system: K4 kissing-loop RNA reporter
Assay: apparent KD of K4 kissing-loop reporter; higher = weaker reporter binding
Details: Eterna round: R107
Method: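 RNA-MaP round R107: designed RNA switches with theophylline, tryptophan, arginine or FMN aptamers are transcribed on-chip within common flanks. They are titrated with a labelled K4 kissing-loop RNA reporter in RNA-MaP buffer (100 mM Tris pH 7.5, 80 mM KCl, 4 mM MgCl2), without ligand or with the indicated ligand. Median apparent KD per design.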

[1] = input ligand: theophylline 20 uM
[2] = input ligand: tryptophan 2.4 mM
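Also: bound reporter read as fluorescence of individual clusters on recovered sequencing chips by microscopy, with normalized cluster intensities fitted with a binding model.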

Sequence	apparent KD of K4 kissing-loop reporter (input ligand: FMN 200 uM)	apparent KD of K4 kissing-loop reporter (input ligand: arginine 13.2 mM)	apparent KD of K4 kissing-loop reporter (input ligand: none)	apparent KD of K4 kissing-loop reporter [1]	apparent KD of K4 kissing-loop reporter [2]
UUAGUCUAGAGAGGAUAUCAGUGAUGUUGAUAUCAAGAUCUGAGAUAGAAUUCUAUCUCAGAUCAAUGAGAAGGCUCUAGACAUU [AK1.2 Exc FMN B]	0.778 µM	0.151 µM	0.168 µM	0.147 µM	0.143 µM
UUCAGACUACUACUAUUUAGUAGUAUAUACUAGGAUAUCCAGAUAUGGAGAAGGAGUGAUGUUCCUUAGUAGUAGUGAAUUAAAU [KL-XFMN-A6]	0.145 µM	0.138 µM	0.128 µM	0.144 µM	0.114 µM
UUCGGCCUGACGGCCGCCACUUUGGGUAGUGAUGUUACCAACAUUCACCAGAUACAGGUUACUUCAAGGACCGGGUCAGACGGUG [theeternabot_exclusion_KL_Trp_B_45]	0.104 µM	0.1 µM	0.121 µM	0.107 µM	0.0928 µM
UUCGUCGCGCAUGAUACCAGCGAGAUUUAACGCCGAAUCCUCACGCAGUGAUGUUGCACCCGCCCUUGGCAGCAUAGCCGGUUAC [theeternabot_sameState_KL_Theo_B_13]	0.25 µM	0.304 µM	0.328 µM	0.344 µM	0.199 µM
UUGCGUCUCUGAGGAUAUCAGAACAGAGUGAUGUUCUGUCAACGCCCAGUGAUGUUGGAUGCGAUCUGAGAAGGCAGUGGGCGCG [Same State FMN B GF 10]	0.202 µM	0.188 µM	0.219 µM	0.177 µM	0.184 µM
UUGUUAUGAUAAAAUCCUGUUUGAUAAAGACAGGAUAUAGAAAAUACUAGAAGGGUCAUUAUAUGCAGUGAUGUUGCAAAUAAGU [Exclusion FMN A Gf 22]	0.041 µM	0.0608 µM	0.0384 µM	0.0551 µM	0.035 µM
UUGUUUGGUUGAGAGGUUGGGCGAGAUGAUACCAGUAGAUAAGAAUACCCUUGGCAGCAUAAGAAAGAUAUAGUGAUGUUGUAUA [SSTheophA.N]	0.566 µM	0.386 µM	0.553 µM	0.525 µM	0.478 µM
UUUAACGAGUGAUGUUCGAAAAGUAAUGGUGAGGAUAUCGUUUUUUCGAGAAGGCACCUCGAAGUGAUACGAAAGUAUCGCUUCG [FMN A 3]	0.172 µM	0.332 µM	0.315 µM	0.314 µM	0.266 µM
UUUAACGAGUGAUGUUCGUAAAGUAAUAGUUAGGAUAUCGUUUUUUCGAGAAGGAACUUCGAAGUGAUACGAAAGUAUCGCUUCG [FMN A 8]	0.136 µM	0.192 µM	0.192 µM	0.205 µM	0.152 µM
UUUAGGAGUGGUGUUGAUUAGGGAGCGGAAGGAGCGCCGAGGAAGGCAGGUAGGUCGCCGGAUUAUAGUGAUGUUAUGAAGAGGG [ExArg.M]	0.875 µM	0.723 µM	0.792 µM	0.912 µM	0.654 µM
UUUAUUAAGACGGCCGCCACUGAAUCAUAGUGAUGUUAUGAUAUAAUUUUAGUGAUUUUGAUUAGCAGGACCGGGUCAAUUAUUA [#26 K4 Tryptophan B Exclusion]	0.165 µM	0.133 µM	0.144 µM	0.139 µM	0.14 µM
UUUCGGUUCUGAGGAUAUUCGGACAAAUAUAGUGAUGUUGUAUAAGGAGGAGGGUGUUGGCAGUGCGGAGAAGGCAGACCAGGAU [ExFMNB.W]	0.853 µM	0.557 µM	1.17 µM	0.878 µM	0.546 µM
UUUGGAGUGGGAGGAUAUCCUAAUAUGGGUGAUGUUAGCGAUGUUGAAAGUGUAGUGAUGUUGUGCGGAGAAGGUCCAGUGUAGA [BDazzled - #14 - Exc. FMN B]	0.242 µM	0.165 µM	0.285 µM	0.292 µM	0.24 µM
UUUUAAAUAUCUGAUACCAGAGCGAAUAUAUGUAGUGAUGUUAUAUACAAAAUAAAUAAGCUCCCUUGGCAGCAGUAUUAAUUUU [Astros-ExyTheB#?#ED14.66]	1.02 µM	0.829 µM	0.919 µM	0.961 µM	0.968 µM
UUUUAAAUGUCUGAUACCAGAGAAAAUAUAUGUAGUGAUGUUAUAUACAAAUUUAAUAAGCUCCCUUGGCAGCAGUAUGAAUUUU [AstrosExc-TheB#12]	0.616 µM	0.766 µM	0.873 µM	0.784 µM	0.552 µM
UUUUUCCCGCAGGAUACCAGCAACCAAACGUCAUGCGAAGUGAUGUUUCGCUUACGGUAGUGCCCUUGGCAGCCUUCGGUAGGGU [thingy]	0.196 µM	0.161 µM	0.183 µM	0.119 µM	0.161 µM
UUUUUCGCGUUUGAUACCAGCAGAGUUGUUCUUGUCUGGAACAUGAGUGAUGUUCAUGUCUGCCCUUGGCAGCAAACGGGAGAAG [KL-XTheo-B12]	0.122 µM	0.111 µM	0.11 µM	0.114 µM	0.116 µM
UUUUUUUACUGAAGGAGCGGCAAUUGAUACGUAGAUAUAGUGAUGUUAUAUAAGAUAGAGAGCCAGGUAGGUCGCAGAUUUUUUC [ExArgB.X]	0.194 µM	0.16 µM	0.172 µM	0.143 µM	0.129 µM
